From paper PMC5508133 come the findings set out here.

This experiment has as its target PfEMP1B (GFP-tagged minimal PfEMP1 construct) (P. falciparum). Put plainly: co-IP; GFP-Trap on parasite lysates crosslinked with increasing concentrations of DSP; 1% Triton X-100, 150 mM NaCl, 50 mM Tris-HCl pH 7.4; western blot of eluates. (Immunoblotting shows a protein as a band on a membrane.)

B1: ring-exported protein-1 (REX1) (natural protein)
chain: MADYSSNEEETPKEEKKISKLEDMQSPFDYKRFFRKYTIFAPFILVYFTLMFFVNSTVQNGTMLLNSIKENANSKLPALLWNKIIGKGNDNEVNFEDKKMIEGNKSGNGEEHNKHKRRQVDNQEDDYDVDEYGNPKSGAPYKSEEEHAEQQNYYGEHHGDYEDKNEYHGKSNIENNKDFPEQGQKDEEKEKEAKKKAEEFEKRKQLHEEEKRKARETQQALHKKLQEQLQRLKEQEKKKVEHQKLIHKIKTQGDVDPAVQKVLNKYNQKEKDEEQQILKIRDLQVQLRHIQQRIQSLKSTNNGQPKTKDEYLQLKDLQKEYYDKEQDEQNMIEHLEHLQGEMQYLYEELQIVYDENQAKTAQAKDEQHELKPQAEKDASKLTTTYDQTKEVKPQAEKDASKLTTTYDQTKEVKPQAEKDASKLTTTYDQTKEVKPQAEKDALAKTENQNGELLPQAEKDASKLTTTYDQTKEVKPQAEKDALAKTENQNGELLPQAEKDASKLTTTYDQTKEVKPQAEKDALAKTENQNGELLPQAEKDASKLTTTYDQTKEVKPQAEKDALAKTENQSGELLTQAEKDALAKKESEAPKGSSTSDKNTTENQLNAEAQSEVKPQWQKDYWKSKNESQTETNNTWKKDSWKKKTEEQQNAEAQQEVKSPYEKYSYNKETKPQNDKYTLNKEVKPQNEKYTYNQKVKAENTESEKSLLESSVFN
For the molecule B1, the fold increase of pull-down in the presence of DSP was over 10 fold.
